The values below come from patent publication US20200032346.

For series [1], the target named is HisTAG-EGFR^aa1-650, P00533.
Series [2] has as its target HisTAG-ΔEGFR N-terminusY88A, P00533.
The target of series [3] is T1, mutant peptide 3 (FLKTIQEVAGAVLIALNTVER).
T1 chain: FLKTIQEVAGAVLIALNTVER

The target of series [4] is T2, peptide 1 (EVVLGNLEITYVQRNYDLSFL).
T2 chain: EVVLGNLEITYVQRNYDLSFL

For series [5], the target named is T3, peptide 10 (QMDVNPEGKYSFGATCVKK).
T3 chain: QMDVNPEGKYSFGATCVKK

Series [6] addresses T4, peptide 11 (ATCVKKCPRNYVVTDHGSCVR).
T4 chain: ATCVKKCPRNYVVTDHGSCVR

For series [7], the target named is T5, peptide 12 (SCVRACGADSYEMEEDGVRKC).
T5 chain: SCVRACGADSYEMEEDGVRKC

The target of series [8] is T6, peptide 13 (VIISGNKNLCYANTINWKKLF).
T6 chain: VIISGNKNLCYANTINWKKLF

For series [9], the target named is T7, peptide 14 (GPDNCIQCAHYIDGPHCVKTC).
T7 chain: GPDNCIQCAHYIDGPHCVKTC

For series [10], the target named is T8, peptide 15 (MGENNTLVWKYADAGHVCHLC).
T8 chain: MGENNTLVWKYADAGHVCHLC

Series [11] has as its target T9, peptide 16 (VCHLCHPNCTYGCTGPGLEGC).
T9 chain: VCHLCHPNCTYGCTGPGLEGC

Series [12] deals with T10, peptide 2 (NLEITYVQRNYDLSFLKTIQE).
T10 chain: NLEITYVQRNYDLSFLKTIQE

The target of series [13] is T11, peptide 3 (FLKTIQEVAGYVLIALNTVER).
T11 chain: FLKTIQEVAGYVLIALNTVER

Series [14] has as its target T12, peptide 4 (ENLQIIRGNMYYENSYALAVL).
T12 chain: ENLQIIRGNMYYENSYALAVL

In series [15] the target is T13, peptide 5 (NLQIIRGNMYYENSYALAVLS).
T13 chain: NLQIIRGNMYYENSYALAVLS

The target in series [16] is T14, peptide 6 (IRGNMYYENSYALAVLSNYDA).
T14 chain: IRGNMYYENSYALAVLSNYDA

The target of series [17] is T15, peptide 7 (NSYALAVLSNYDANKTGLKEL).
T15 chain: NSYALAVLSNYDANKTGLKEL

Series [18] deals with T16, peptide 8 (CKDTCPPLMLYNPTTYQMDVN).
T16 chain: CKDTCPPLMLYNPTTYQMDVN

The target in series [19] is T17, peptide 9 (PPLMLYNPTTYQMDVNPEGKY).
T17 chain: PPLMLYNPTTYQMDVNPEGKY

B1: GST-MAN2A1-FER (protein)
chain: MKLSRQFTVFGSAIFCVVIFSLYLMLDRGHLDYPRNPRREGSFPQGQLSMLQEKIDHLERLLAENNEIISNIRDSVINLSESVEDGPKSSQSNFSQGAGSHLLPSQLSLSVDTADCLFASQSGSHNSDVQMLDVYSLISFDNPDGGVWKQGFDITYESNEWDTEPLQVFVVPHSHNDPGWLKTFNDYFRDKTQYIFNNMVLKLKEDSRRKFIWSEISYLSKWWDIIDIQKKDAVKSLIENGQLEIVTGGWVMPDEATPHYFALIDQLIEGHQWLENNIGVKPRSGWAIDPFGHSPTMAYLLNRAGLSHMLIQRVHYAVKKHFALHKTLEFFWRQNWDLGSVTDILCHMMPFYSYDIPHTCGPDPKICCQFDFKRLPGGRFGCPWGVPPETIHPGNVQSRARMLLDQYRKKSKLFRTKVLLAPLGDDFRYCEYTEWDLQFKNYQQLFDYMNSQSKFKVKIQFGTLSDFFDALDKADETQRDKGQSMFPVLSGDFFTYADRDDHYWSGYFTSRPFYKRMDRIMESHLRAAEILYYFALRQAHKYKINKFLSSSLYTALTEARRNLGLFQHHDAITGTAKDWVVVDYGTRLFHSLMVLEKIIGNSAFLLILKDKLTYDSYSPDTFLEMDLKQKSQDSLPQKNIIRLSAEPRYLVVYNPLEQDRISLVSVYVSSPTVQVFSASGKPVEVQVSAVWDTANTISETAYEGNFGEVYKGTLKDKTSVAVKTCKEDLPQELKIKFLQEAKILKQYDHPNIVKLIGVCTQRQPVYIIMELVSGGDFLTFLRRKKDELKLKQLVKFSLDAAAGMLYLESKNCIHRDLAARNCLVGENNVLKISDFGMSRQEDGGVYSSSGLKQIPIKWTAPEALNYGRYSSESDVWSFGILLWETFSLGVCPYPGMTNQQAREQVERGYRMSAPQHCPEDISKIMMKCWDYKPENRPKFSELQKELTIIKRKLT
Regarding B1, the “in vitro kinase assay, phosphorylation of the substrate” value in series [1] is on record as “GST-MAN2A1-FER phosphorylated the recombinant HisTAG-EGFR^aa1-650 in an ATP dosage-dependent manner”; in series [2], “No phosphorylation was found when Y88 was mutated to alanine in EGFR N-terminus”. In addition, the “phosphorylation assay on synthetic peptide” value (“phosphorylation assay” below) is “mutant peptide was not phosphorylated by the fusion protein” in series [3]; “only the sequence corresponding to FLKTIQEVAGYVLIALNTVER (peptide 3) in EGFR was phosphorylated by GST-MAN2A1-FER” in series [4]; “only the sequence corresponding to FLKTIQEVAGYVLIALNTVER (peptide 3) in EGFR was phosphorylated by GST-MAN2A1-FER” in series [5]; “only the sequence corresponding to FLKTIQEVAGYVLIALNTVER (peptide 3) in EGFR was phosphorylated by GST-MAN2A1-FER” in series [6]; “only the sequence corresponding to FLKTIQEVAGYVLIALNTVER (peptide 3) in EGFR was phosphorylated by GST-MAN2A1-FER” in series [7]; “only the sequence corresponding to FLKTIQEVAGYVLIALNTVER (peptide 3) in EGFR was phosphorylated by GST-MAN2A1-FER” in [8]. Further, the “phosphorylation assay” value in series [9], in series [10], in series [11], in series [12], in [13] and in [14] was “only the sequence corresponding to FLKTIQEVAGYVLIALNTVER (peptide 3) in EGFR was phosphorylated by GST-MAN2A1-FER” each time. Also, the “phosphorylation assay” value in series [15], in series [16], in series [17], in [18] and in [19] was “only the sequence corresponding to FLKTIQEVAGYVLIALNTVER (peptide 3) in EGFR was phosphorylated by GST-MAN2A1-FER” throughout. The “phosphorylation of HisTAG-ΔEGFR^aa1-650 by GST-MAN2A1-FER with an excessive amount of peptide” value in [3] was “peptide 3, but not the mutant counterpart, partially blocked the phosphorylation of EGFR N-terminus by GST-MAN2A1-FER”; in [13] it was “peptide 3, but not the mutant counterpart, partially blocked the phosphorylation of EGFR N-terminus by GST-MAN2A1-FER”.
